# Patent publication US20260008815A1, “CYCLIC PEPTIDE OR SALT THEREOF, AND USES THEREOF” (FUJIFILM Corporation, priority 2023, published 2026)
# Bridge positions count the residues as written; N and C are the ends. Ends that are not written are not given here. COCH2 = acetyl group that carries the bridge
# Molecular target: T1, Recombinant Human FGFR2 alpha (IIIc) Fc Chimera Protein, CF (R&D systems, 712-FR-050) (human, UniProt P21802 22-377)
# T1 construct: bought; not shown: Fc part of the chimera
# T1 sequence (P21802 22-377, change not shown): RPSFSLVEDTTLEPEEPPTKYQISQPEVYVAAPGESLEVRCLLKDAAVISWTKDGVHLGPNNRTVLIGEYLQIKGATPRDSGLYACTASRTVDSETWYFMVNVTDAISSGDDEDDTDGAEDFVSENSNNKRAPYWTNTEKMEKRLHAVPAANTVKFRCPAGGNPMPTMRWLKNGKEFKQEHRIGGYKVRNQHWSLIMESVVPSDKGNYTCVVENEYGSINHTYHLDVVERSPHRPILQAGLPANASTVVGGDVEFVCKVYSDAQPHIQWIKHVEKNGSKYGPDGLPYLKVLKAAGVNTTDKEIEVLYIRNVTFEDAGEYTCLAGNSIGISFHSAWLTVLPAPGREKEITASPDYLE
# Test: ELISA on plate-bound FGFR2-Fc
# Protocol: First, 5 ng of Recombinant Human FGFR2 alpha (IIIc) Fc Chimera Protein (R&D systems, 712-FR-050) was immobilized in each well of a 96-well plate, and blocked with Pierce Protein-Free (PBS) Blocking Buffer (Thermo, 37572), and a peptide diluted with Can Get Signal Immunoreaction Enhancer Solution I (TOYOBO, NKB-101) was then added and reacted at room temperature for 3 hours. After washing with 0.05% Tween 20-containing phosphate buffered saline (PBS), an anti-Myc antibody (Cell Signaling, 14038S) diluted with Can Get Signal Immunoreaction Enhancer Solution II (TOYOBO, NKB-101) was added and reacted at room temperature for 2 hours. After washing with 0.05% Tween 20-containing PBS, SuperSignal ELISA Femto Substrate (Thermo, 37075) was added, and the luminescence amount was measured. The dose-response relationship was calculated from using the difference between the luminescence amount in the well in which FGFR was immobilized and the luminescence amount in the well in which FGFR was not immobilized, and the concentration of the peptide at the time of reaction, and the binding affinity to FGFR was evaluated according to the following evaluation criteria. The evaluation result preferably satisfies the evaluation criteria A, B, or C.
row,Binder,"ELISA luminescence signal at 10 nmol/L peptide, relative to SEQ ID NO: 47 (=1)"
1,HCNANFVYQQQYLYLLQYK(COCH2)L (thioether 2-19 (inferred)) [cyclic peptide SEQ ID NO: 43],0.5 to 0.7 ratio
2,YCEENYLDPEQYQYFIYFK(COCH2)Y (thioether 2-19) [cyclic peptide SEQ ID NO: 131],≥ 0.7 ratio
3,YCELNYLDPEQYQYFIYFK(COCH2)Y (thioether 2-19) [cyclic peptide SEQ ID NO: 168],≥ 0.7 ratio
4,YCWENYLDPEQYQYFIYFK(COCH2)Y (thioether 2-19) [cyclic peptide SEQ ID NO: 158],≥ 0.7 ratio
5,YCEGNYLDPEQYQYFIYFK(COCH2)Y (thioether 2-19) [cyclic peptide SEQ ID NO: 166],≥ 0.7 ratio
6,YCEWNYLDPEQYQYFIYFK(COCH2)Y (thioether 2-19 (inferred)) [cyclic peptide SEQ ID NO: 173],≥ 0.7 ratio
7,RCEENYLDPEQYQYFIYFK(COCH2)Y (thioether 2-19) [cyclic peptide SEQ ID NO: 149],≥ 0.7 ratio
8,FCEENYLDPEQYQYFIYFK(COCH2)Y (thioether 2-19) [cyclic peptide SEQ ID NO: 141],≥ 0.7 ratio
9,YCSENYLDPEQYQYFIYFK(COCH2)Y (thioether 2-19) [cyclic peptide SEQ ID NO: 161],≥ 0.7 ratio
10,GCEENYLDPEQYQYFIYFK(COCH2)Y (thioether 2-19) [cyclic peptide SEQ ID NO: 136],≥ 0.7 ratio
11,QCEENYLDPEQYQYFIYFK(COCH2)Y (thioether 2-19) [cyclic peptide SEQ ID NO: 144],≥ 0.7 ratio
12,WCEENYLDPEQYQYFIYFK(COCH2)Y (thioether 2-19) [cyclic peptide SEQ ID NO: 142],≥ 0.7 ratio
13,YCNENYLDPEQYQYFIYFK(COCH2)Y (thioether 2-19) [cyclic peptide SEQ ID NO: 159],≥ 0.7 ratio
14,ECEENYLDPEQYQYFIYFK(COCH2)Y (thioether 2-19) [cyclic peptide SEQ ID NO: 148],≥ 0.7 ratio
15,YCTENYLDPEQYQYFIYFK(COCH2)Y (thioether 2-19) [cyclic peptide SEQ ID NO: 162],≥ 0.7 ratio
16,NCEENYLDPEQYQYFIYFK(COCH2)Y (thioether 2-19) [cyclic peptide SEQ ID NO: 143],≥ 0.7 ratio
17,YCQENYLDPEQYQYFIYFK(COCH2)Y (thioether 2-19) [cyclic peptide SEQ ID NO: 160],≥ 0.7 ratio
18,YCHENYLDPEQYQYFIYFK(COCH2)Y (thioether 2-19) [cyclic peptide SEQ ID NO: 165],≥ 0.7 ratio
19,TCEENYLDPEQYQYFIYFK(COCH2)Y (thioether 2-19) [cyclic peptide SEQ ID NO: 146],≥ 0.7 ratio
20,YCLENYLDPEQYQYFIYFK(COCH2)Y (thioether 2-19) [cyclic peptide SEQ ID NO: 153],≥ 0.7 ratio
21,PCEENYLDPEQYQYFIYFK(COCH2)Y (thioether 2-19) [cyclic peptide SEQ ID NO: 137],≥ 0.7 ratio
22,HCEENYLDPEQYQYFIYFK(COCH2)Y (thioether 2-19) [cyclic peptide SEQ ID NO: 150],≥ 0.7 ratio
23,YCVENYLDPEQYQYFIYFK(COCH2)Y (thioether 2-19) [cyclic peptide SEQ ID NO: 155],≥ 0.7 ratio
24,YCEINYLDPEQYQYFIYFK(COCH2)Y (thioether 2-19) [cyclic peptide SEQ ID NO: 169],≥ 0.7 ratio
25,ICEENYLDPEQYQYFIYFK(COCH2)Y (thioether 2-19) [cyclic peptide SEQ ID NO: 139],≥ 0.7 ratio
26,DCEENYLDPEQYQYFIYFK(COCH2)Y (thioether 2-19) [cyclic peptide SEQ ID NO: 147],≥ 0.7 ratio
27,QCTYLAQYLVERYHLTK(COCH2)T (thioether 2-17) [cyclic peptide SEQ ID NO: 135],0.1 to 0.5 ratio

# The remaining lines, values ahead:
row,"ELISA luminescence signal at 10 nmol/L peptide, relative to SEQ ID NO: 47 (=1)",Binder
1,≥ 0.7 ratio,ECLGNYFSHEQYQYLLQYK(COCH2)I (thioether 2-19) [cyclic peptide SEQ ID NO: 133]
2,0.1 to 0.5 ratio,LCADQYDYLLQYVFWRTYK(COCH2)I (thioether 2-19) [cyclic peptide SEQ ID NO: 134]
3,≥ 0.7 ratio,YCEPNYLDPEQYQYFIYFK(COCH2)Y (thioether 2-19) [cyclic peptide SEQ ID NO: 167]
4,≥ 0.7 ratio,YCPENYLDPEQYQYFIYFK(COCH2)Y (thioether 2-19) [cyclic peptide SEQ ID NO: 152]
5,≥ 0.7 ratio,YCYENYLDPEQYQYFIYFK(COCH2)Y (thioether 2-19) [cyclic peptide SEQ ID NO: 157]
6,≥ 0.7 ratio,YCFENYLDPEQYQYFIYFK(COCH2)Y (thioether 2-19) [cyclic peptide SEQ ID NO: 156]
7,≥ 0.7 ratio,YCDENYLDPEQYQYFIYFK(COCH2)Y (thioether 2-19) [cyclic peptide SEQ ID NO: 163]
8,≥ 0.7 ratio,YCENNYLDPEQYQYFIYFK(COCH2)Y (thioether 2-19 (inferred)) [cyclic peptide SEQ ID NO: 174]
9,≥ 0.7 ratio,YCIENYLDPEQYQYFIYFK(COCH2)Y (thioether 2-19) [cyclic peptide SEQ ID NO: 154]
10,≥ 0.7 ratio,SCEENYLDPEQYQYFIYFK(COCH2)Y (thioether 2-19) [cyclic peptide SEQ ID NO: 145]
11,≥ 0.7 ratio,YCEYNYLDPEQYQYFIYFK(COCH2)Y (thioether 2-19 (inferred)) [cyclic peptide SEQ ID NO: 172]
12,0.5 to 0.7 ratio,YCEFNYLDPEQYQYFIYFK(COCH2)Y (thioether 2-19 (inferred)) [cyclic peptide SEQ ID NO: 171]
13,≥ 0.7 ratio,YCGENYLDPEQYQYFIYFK(COCH2)Y (thioether 2-19) [cyclic peptide SEQ ID NO: 151]
14,≥ 0.7 ratio,YCEVNYLDPEQYQYFIYFK(COCH2)Y (thioether 2-19) [cyclic peptide SEQ ID NO: 170]
15,≥ 0.7 ratio,VCEENYLDPEQYQYFIYFK(COCH2)Y (thioether 2-19) [cyclic peptide SEQ ID NO: 140]
16,≥ 0.7 ratio,LCEENYLDPEQYQYFIYFK(COCH2)Y (thioether 2-19) [cyclic peptide SEQ ID NO: 138]
17,≥ 0.7 ratio,YCRENYLDPEQYQYFIYFK(COCH2)Y (thioether 2-19) [cyclic peptide SEQ ID NO: 164]
